# Measured values reported in IntAct's records for PubMed 17703188.
# B1: Discoidin domain-containing receptor 2 (Homo sapiens), Q16832 (parent)
# chain: MILIPRMLLVLFLLLPILSSAKAQVNPAICRYPLGMSGGQIPDEDITASSQWSESTAAKYGRLDSEEGDGAWCPEIPVEPDDLKEFLQIDLHTLHFITLVGTQGRHAGGHGIEFAPMYKINYSRDGTRWISWRNRHGKQVLDGNSNPYDIFLKDLEPPIVARFVRFIPVTDHSMNVCMRVELYGCVWLDGLVSYNAPAGQQFVLPGGSIIYLNDSVYDGAVGYSMTEGLGQLTDGVSGLDDFTQTHEYHVWPGYDYVGWRNESATNGYIEIMFEFDRIRNFTTMKVHCNNMFAKGVKIFKEVQCYFRSEASEWEPNAISFPLVLDDVNPSARFVTVPLHHRMASAIKCQYHFADTWMMFSEITFQSDAAMYNNSEALPTSPMAPTTYDPMLKVDDSNTRILIGCLVAIIFILLAIIVIILWRQFWQKMLEKASRRMLDDEMTVSLSLPSDSSMFNNNRSSSPSEQGSNSTYDRIFPLRPDYQEPSRLIRKLPEFAPGEEESGCSGVVKPVQPSGPEGVPHYAEADIVNLQGVTGGNTYSVPAVTMDLLSGKDVAVEEFPRKLLTFKEKLGEGQFGEVHLCEVEGMEKFKDKDFALDVSANQPVLVAVKMLRADANKNARNDFLKEIKIMSRLKDPNIIHLLAVCITDDPLCMITEYMENGDLNQFLSRHEPPNSSSSDVRTVSYTNLKFMATQIASGMKYLSSLNFVHRDLATRNCLVGKNYTIKIADFGMSRNLYSGDYYRIQGRAVLPIRWMSWESILLGKFTTASDVWAFGVTLWETFTFCQEQPYSQLSDEQVIENTGEFFRDQGRQTYLPQPAICPDSVYKLMLSCWRRDTKNRPSFQEIHLLLLQQGDE
# Variants of: B1
# Conditions: with coba2_human COL11A2, P13942
# coba2_human COL11A2, P13942, sequence (P13942 whole entry): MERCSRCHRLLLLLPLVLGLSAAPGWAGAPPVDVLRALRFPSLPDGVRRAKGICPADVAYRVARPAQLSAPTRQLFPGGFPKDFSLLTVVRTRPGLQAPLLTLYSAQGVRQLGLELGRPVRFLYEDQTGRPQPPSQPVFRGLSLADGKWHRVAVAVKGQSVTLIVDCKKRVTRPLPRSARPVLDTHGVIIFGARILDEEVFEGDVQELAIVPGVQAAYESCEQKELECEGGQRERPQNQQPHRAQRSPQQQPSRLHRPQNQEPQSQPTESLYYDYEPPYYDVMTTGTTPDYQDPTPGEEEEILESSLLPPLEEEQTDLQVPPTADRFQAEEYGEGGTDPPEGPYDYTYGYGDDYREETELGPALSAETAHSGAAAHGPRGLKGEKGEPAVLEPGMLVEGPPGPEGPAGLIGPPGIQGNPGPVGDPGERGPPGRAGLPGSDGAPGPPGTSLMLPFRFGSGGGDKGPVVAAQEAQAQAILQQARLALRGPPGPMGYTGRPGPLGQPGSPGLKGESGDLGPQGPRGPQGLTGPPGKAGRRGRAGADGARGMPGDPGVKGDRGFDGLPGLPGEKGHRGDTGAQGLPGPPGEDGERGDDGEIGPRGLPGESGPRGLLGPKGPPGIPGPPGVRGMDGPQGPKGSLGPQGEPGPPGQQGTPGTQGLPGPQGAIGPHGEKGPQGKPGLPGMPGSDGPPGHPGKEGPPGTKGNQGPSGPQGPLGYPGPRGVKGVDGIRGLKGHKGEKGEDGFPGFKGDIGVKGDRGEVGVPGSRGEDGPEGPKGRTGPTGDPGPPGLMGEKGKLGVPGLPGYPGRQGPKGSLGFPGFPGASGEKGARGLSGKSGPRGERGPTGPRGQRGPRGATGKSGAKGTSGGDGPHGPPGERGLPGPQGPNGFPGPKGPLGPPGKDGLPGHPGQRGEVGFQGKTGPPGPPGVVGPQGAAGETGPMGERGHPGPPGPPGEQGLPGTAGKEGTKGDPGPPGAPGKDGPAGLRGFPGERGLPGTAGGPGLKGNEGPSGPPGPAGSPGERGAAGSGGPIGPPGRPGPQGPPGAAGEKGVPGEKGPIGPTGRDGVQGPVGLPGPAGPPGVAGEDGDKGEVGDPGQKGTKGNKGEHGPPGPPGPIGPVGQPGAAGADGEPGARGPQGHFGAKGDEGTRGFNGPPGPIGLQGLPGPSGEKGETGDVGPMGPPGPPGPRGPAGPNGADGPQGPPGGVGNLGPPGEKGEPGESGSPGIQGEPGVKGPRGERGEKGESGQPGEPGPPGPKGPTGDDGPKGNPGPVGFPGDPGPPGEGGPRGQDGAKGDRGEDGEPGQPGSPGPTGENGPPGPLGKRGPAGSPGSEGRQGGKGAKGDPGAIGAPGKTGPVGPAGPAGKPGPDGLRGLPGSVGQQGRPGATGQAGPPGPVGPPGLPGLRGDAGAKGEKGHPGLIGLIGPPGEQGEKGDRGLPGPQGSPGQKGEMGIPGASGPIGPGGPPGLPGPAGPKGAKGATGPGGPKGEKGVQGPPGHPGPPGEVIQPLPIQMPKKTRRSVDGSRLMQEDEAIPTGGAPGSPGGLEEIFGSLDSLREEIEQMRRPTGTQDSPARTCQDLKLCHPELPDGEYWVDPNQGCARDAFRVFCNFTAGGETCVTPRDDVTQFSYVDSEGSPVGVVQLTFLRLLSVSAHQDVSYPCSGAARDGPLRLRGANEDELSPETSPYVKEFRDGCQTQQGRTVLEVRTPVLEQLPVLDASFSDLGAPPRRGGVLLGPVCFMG
row,Variant,effect of a mutation on the interaction
1,W52A,disrupting interaction
2,R105A,disrupting interaction
3,E113A,disrupting interaction
